Consider 27 molecules from doi:10.1101/2020.04.16.045419 (bioRxiv, 2020).

Positions count from the first letter of the chain named.

The test concerns the target SARS-CoV-2 RBD construct consisting of residues Pro330-Gly526 fused to Venus YFP (RBD-vYFP) (SARS-CoV-2, UniProt P0DTC2).

B1: Sb#37 (VHH)
VHH: QVQLVESGGGLVQAGGSLRLSCAASGFPVYHAYMEWYRQAPGKEREWVAAIYSNGEHTYYADSVKGRFTISRDNAKNTVYLQMNSLKPEDTAVYYCNVKDSGSFNQAYDYWGQGTQVTVS
For B1, the binding result was “binds”.

B2: Sb#53 (VHH)
VHH: QVQLVESGGGSVQAGGSLRLSCAASGQISHIKYLGWFRQAPGKEREGVAALITRWGQTYYADSVKGRFTVSLDNAKNTVYLQMNSLKPEDTALYYCAAADYGASDPLWFIHYLYWGQGTQVTVS
With B2, the binding result is recorded as “binds”.

B3: Sb#48 (VHH)
VHH: QVQLVESGGGLVQAGGSLRLSCAASGFPVSQSVMAWYRQAPGKEREWVAAIYSKGQYTHYADSVKGRFTISRDNAKNTVYLQMNSLKPEDTAVYYCNVKDAGSSYWDYDYWGQGTQVTVS
Regarding B3, the binding result was “binds”.

B4: Sb#55 (VHH)
VHH: QVQLVESGGGSVQAGGSLRLSCAASGKIWTIKYLGWFRQAPGKEREGVAALMTRWGYTYYADSVKGRFTVSLDNAKNTVYLQMNSLKPEDTALYYCAAANYGSNFPLAEEDYWYWGQGTQVTVS
As to B4, the binding result is “binds”.

B5: Sb#67 (VHH)
VHH: QVQLVESGGGSVQAGGSLRLSCAASGSISSITYLGWFRQAPGKEREGVAALVTYSGNTYYADSVKGRFTVSLDNAKNTVYLQMNSLKPEDTALYYCAAATWGHSWPLYNDEYWYWGQGSQVTVS
Turning to B5, the binding result is listed as “binds”.

B6: Sb#51 (VHH)
VHH: QVQLVESGGGLVQAGGSLRLSCAASGFPVYQGEMHWYRQAPGKEREWVAAIRSTGVQTWYADSVKGRFTISRDNAKNTVYLQMNSLKPEDTAVYYCRVWVGTHYFGQGTQVTVS
For the molecule B6, the binding result is “binds”.

B7: Sb#50 (VHH)
VHH: QVQLVESGGGSVQAGGSLRLSCAASGYIDKIVYLGWFRQAPGKEREGVAALYTLSGHTYYADSVKGRFTVSLDNAKNTVYLQMNSLKPEDTALYYCAAATEGHAHALYRLHYYWGQGTQVTVS
For the molecule B7, the binding result is listed as “binds”.

B8: Sb#56 (VHH)
VHH: QVQLVESGGGSVQAGGSLRLSCAASGNISQIHYLGWFRQAPGKEREGVAALNTDYGYTYYADSVKGRFTVSLDNAKNTVYLQMNSLKPEDTALYYCAAAYYFGDDIPLWWEAYSYWGQGTQVTVS
With B8, the binding result is recorded as “binds”.

B9: Sb#64 (VHH)
VHH: QVQLVESGGGSVQAGGSLRLSCAASGEIESIFYLGWFRQAPGKEREGVAALYTYVGQTYYADSVKGRFTVSLDNAKNTVYLQMNSLKPEDTALYYCAAASYGAAHPLSIMRYYYWGQGTQVTVS
B9: the binding result was “binds”.

B10: Sb#46 (VHH)
VHH: QVQLVESGGGLVQAGGSLRLSCAASGFPVDNGYMHWYRQAPGKEREWVAAIDSYGWHTIYADSVKGRFTISRDNAKNTVYLQMNSLKPEDTAVYYCNVKDKGQMRAAYDYWGQGTQVTVS
Consider B10, for which the binding result was “binds”.

B11: Sb#40 (VHH)
VHH: QVQLVESGGGLVQAGGSLRLSCAASGFPVYYNWMEWYRQAPGKEREWVAAIHSNGDETFYADSVKGRFTISRDNAKNTVYLQMNSLKPEDTAVYYCNVKDIDAEAYAYDYWGQGTQVTVS
B11: the binding result was “binds”.

B12: Sb#52 (VHH)
VHH: QVQLVESGGGSVQAGGSLRLSCAASGNIQRIYYLGWFRQAPGKEREGVAALMTYTGHTYYADSVKGRFTVSLDNAKNTVYLQMNSLKPEDTALYYCAAAYVGAENPLPYSMYGYWGQGTQVTVS
Consider B12, for which the binding result is recorded as “binds”.

B13: Sb#32 (VHH)
VHH: QVQLDESGGGLVQAGGSLRLSCAASGFPVYHAWMEWYRQAPGKEREWVAAITSSGRHTYYADSVKGRFTISRDNAKNTVYLQMNSLKPEDTAVYYCNVKDAGRVYNSYDYWGQGTQVTVS
As for B13, the binding result is “binds”.

B14: Sb#39 (VHH)
VHH: QVQLVESGGGLVQAGGSLRLSCAASGFPVFHVWMEWYRQAPGKEREWVAAIDSAGWHTYYADSVKGRFTISRDNAKNTVYLQMNSLKPEDTAVYYCNVKDAGNTTSAYDYWGQGTQVTVS
Turning to B14, the binding result is given as “binds”.

B15: Sb#62 (VHH)
VHH: QVQLVESGGGSVQAGGSLRLSCAASGTIADIKYLGWFRQAPGKEREGVAALMTRWGSTYYADSVKGRFTVSLDNAKNTVYLQMNSLKPEDTALYYCAAANYGANYPLYSQQYSYWGQGTQVTVS
Regarding B15, the binding result is given as “binds”.

B16: Sb#65 (VHH)
VHH: B15 VHH with D30H, R54K, S57Q, N100S, Y105F, Y108K, S109A, Q110S, Q111D
On to B16, for which the binding result was “binds”.

B17: Sb#63 (VHH)
VHH: B15 VHH with T27S, A29S, D30S, S57M, Y105E, Y108Q, S109Y, Q110T, Q111H, S113N
In the case of B17, the binding result was “binds”.

B18: Sb#69 (VHH)
VHH: QVQLVESGGGSVQAGGSLRLSCAASGSISSITYLGWFRQAPGKEREGVAALNTFNGTTYYADSVKGRFTVSLDNAKNTVYLQMNSLKPEDTALYYCAAATWGYSWPLIAEYNWYWGQGTQVTVS
As to B18, the binding result was “binds”.

B19: Sb#71 (VHH)
VHH: B18 VHH with N52K, F54Q, N55A, T57F, T100N, I108Y, A109E, E110A, Y111D, N112D
As for B19, the binding result is “binds”.

B20: Sb#35 (VHH)
VHH: QVQLVESGGGLVQAGGSLRLSCAASGFPVEHYWMEWYRQAPGKEREWVAAITSFGYRTYYADSVKGRFTISRDNAKNTVYLQMNSLKPEDTAVYYCNVKDWGFASHAYDYWGQGIQVTVS
For the molecule B20, the binding result is given as “binds”.

B21: Sb#49 (VHH)
VHH: QVQLVESGGGSVQAGGSLRLSCAASGSIGQIEYLGWFRQAPGKEREGVAALNTWTGRTYYADSVKGRFTVSLDNAKNTVYLQMNSLKPEDTALYYCAAARWGRTKPLNTYYYSYWGQGTPVTVS
In the case of B21, the binding result is reported as “binds”.

B22: Sb#38 (VHH)
VHH: QVQLVESGGGLVQAGGSLRLSCAASGFPVEWSHMHWYRQAPGKEREWVAAIVSKGGYTLYADSVKGRFTISRDNAKNTVYLQMNSLKPEDTAVYYCNVKDYGVHFKRYDYWGQGTQVTVI
Take B22: the binding result was “binds”.

B23: Sb#36 (VHH)
VHH: QVQLVESGGGLVQAGGSLRLSCAASGFPEIAWEMAWYRQAPGKEREWVAAIRSFGERTLYADSVKGRFTISRDNAKNTVYLQMNSLKPEDTAVYYCNVKDFGWQHQEYDYWGQGTQVTVS
Turning to B23, the binding result was “binds”.

B24: Sb#58 (VHH)
VHH: QVQLVESGGGSVQAGGSLRLSCAASGNISTIEYLGWFRQAPGKEREGVAALYTWHGQTYYADSVKGRFTVSLDNAKNTVYLQMNSLKPEDTALYYCAAARWGRHMPLSATEYSYWGQGTQVTVS
As for B24, the binding result is reported as “binds”.

B25: Sb#33 (VHH)
VHH: QVQLVESGGGLVQAGGSLRLSCAASGFPVAHAWMEWYRQAPGKEREWVAAITSYGYKTYYADSVKGRFTISRDNAKNTVYLQMNSLKPEDTAVYYCNVKDTGTYRFYYDYWGQGTQVTVS
Take B25: the binding result was “binds”.

B26: Sb#66 (VHH)
VHH: QVQLVESGGGSVQAGGSLRLSCAASGSIQAITYLGWFRQAPGKEREGVAALVTWNGQTYYADSVKGRFTVSLDNAKNTVYLQMNSLKPEDTALYYCAAADWGYDWPLWDEWYWYWGQGTQVTVS
On to B26, for which the binding result was “binds”.

B27: Sb#59 (VHH)
VHH: QVQLVESGGGSVQAGGSLRLSCAASGNIESIYYLGWFRQAPGKEREGVAALWTGDGETYYADSVKGRFTVSLDNAKNTVYLQMNSLKPEDTALYYCAAAAWGNSAPLTTYRYYYWGQGTQVTVS
B27: the binding result is “binds”.
